# In patent US20230242658A1 (published 2023):
# Substitutions are numbered along the chain they refer to.
# T1: cynomolgus monkey 4-1BB on CHO-K1 cells (cynomolgus monkey)
# T1 chain: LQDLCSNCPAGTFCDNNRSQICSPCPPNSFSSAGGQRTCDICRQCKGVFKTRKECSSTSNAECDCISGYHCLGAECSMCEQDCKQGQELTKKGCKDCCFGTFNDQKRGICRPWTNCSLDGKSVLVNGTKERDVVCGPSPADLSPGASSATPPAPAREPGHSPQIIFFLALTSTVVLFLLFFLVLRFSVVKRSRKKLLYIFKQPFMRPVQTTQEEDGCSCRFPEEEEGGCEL
# B1: PR007146 (bispecific antibody)
# light: DIQMTQSPSTLSASVGDRVTVTCRASQSIYIWLAWYQQKPGKAPNLLIYKASSLETGVPSRFSGSGSGTEFTLTISSLQPDDFATYYCQQYYGSSRTFGQGTKVEIKRTVAAPSVFIFPPSDEQLKSGTASVVCLLNNFYPREAKVQWKVDNALQSGNSQESVTEQDSKDSTYSLSSTLTLSKADYEKHKVYACEVTHQGLSSPVTKSFNRGEC
# heavy: EVQLVESGGGLVQPGGSLRLSCAASGFTFSSYWMSWVRQAPGKGLEWVANIKQEGSEKYYVDSVKGRFTISRDNAKNSLYLQMNSLRAEDTAVYYCARDRAVAGAFDIWGQGTMVTVSSASTKGPSVFPLAPSSKSTSGGTAALGCLVKDYFPEPVTVSWNSGALTSGVHTFPAVLQSSGLYSLSSVVTVPSSSLGTQTYICNVNHKPSNTKVDKKVEPKSCDKTHTCPPCPAPEAAGAPSVFLFPPKPKDTLMISRTPEVTCVVVDVSHEDPEVKFNWYVDGVEVHNAKTKPREEQYNSTYRVVSVLTVLHQDWLNGKEYKCKVSNKALPAPIEKTISKAKGQPREPQVYTLPPSREEMTKNQVSLTCLVKGFYPSDIAVEWESNGQPENNYKTTPPVLDSDGSFFLYSKLTVDKSRWQQGNVFSCSVMHEALHNHYTQKSLSLSPGGGSGGSEVQLVESGGGLVKPGGSLRLSCAASGFTFSDYYMSWVRQAPGKGLEWVSYISSSGSTIDYADSVKGRFTISRDNAKNSLFLEMNSLRAEDTAVYYCAREREEVAGTLDFDNWGQGTLVTVSS
# B2: PR007145 (bispecific antibody)
# light: B1 light
# heavy: EVQLVESGGGLVQPGGSLRLSCAASGFTFSSYWMSWVRQAPGKGLEWVANIKQEGSEKYYVDSVKGRFTISRDNAKNSLYLQMNSLRAEDTAVYYCARDRAVAGAFDIWGQGTMVTVSSASTKGPSVFPLAPSSKSTSGGTAALGCLVKDYFPEPVTVSWNSGALTSGVHTFPAVLQSSGLYSLSSVVTVPSSSLGTQTYICNVNHKPSNTKVDKKVEPKSCDKTHTCPPCPAPEAAGAPSVFLFPPKPKDTLMISRTPEVTCVVVDVSHEDPEVKFNWYVDGVEVHNAKTKPREEQYNSTYRVVSVLTVLHQDWLNGKEYKCKVSNKALPAPIEKTISKAKGQPREPQVYTLPPSREEMTKNQVSLTCLVKGFYPSDIAVEWESNGQPENNYKTTPPVLDSDGSFFLYSKLTVDKSRWQQGNVFSCSVMHEALHNHYTQKSLSLSPGGGSGGSEVQLVESGGGLVKPGGSLRLSCAASGFTFSDYYMSWIRQAPGKGLEWVSYISRSGSTIYYADSVKGRFTISRDNAKNSLYLQMNSLRAEDTAVYYCARVRPGGSGNYWDWFDPWGQGTLVTVSS
# B3: PR007143 (bispecific antibody)
# light: B1 light
# heavy: B1 heavy with A477V, V491F, S507G, S510T, F534Y, E536Q, E556A, L571P
# B4: PR007141 (bispecific antibody)
# light: B1 light
# heavy: B1 heavy with A477V, V491F, S507G, S510T, F534Y, E536Q, E556P
# B5: PR003551 (bispecific antibody)
# light: B1 light
# heavy: EVQLVESGGGLVQPGGSLRLSCAASGFTFSSYWMSWVRQAPGKGLEWVANIKQEGSEKYYVDSVKGRFTISRDNAKNSLYLQMNSLRAEDTAVYYCARDRAVAGAFDIWGQGTMVTVSSASTKGPSVFPLAPSSKSTSGGTAALGCLVKDYFPEPVTVSWNSGALTSGVHTFPAVLQSSGLYSLSSVVTVPSSSLGTQTYICNVNHKPSNTKVDKKVEPKSCDKTHTCPPCPAPEAAGGPSVFLFPPKPKDTLMISRTPEVTCVVVDVSHEDPEVKFNWYVDGVEVHNAKTKPREEQYNSTYRVVSVLTVLHQDWLNGKEYKCKVSNKALGAPIEKTISKAKGQPREPQVYTLPPSREEMTKNQVSLTCLVKGFYPSDIAVEWESNGQPENNYKTTPPVLDSDGSFFLYSKLTVDKSRWQQGNVFSCSVMHEALHNHYTQKSLSLSPGEPKSSDKTHTPPPPPRTEVQLLESGGGLVQPGGSLRLSCAASGFIFSNFAMTWVRQPPEKGLKWVSSINGSGFNTYYTDSVKGRFTISRDNSRNTLYLQMNRLTAEDTAVYFCAKEGSSETDDHYYNVDVWGQGTTVTVSS
# B6: PR000701 (bispecific antibody)
# chain 1: not shown
# chain 2: EVQLVESGGGLVQPGGSLRLSCAASGFTFSSYWMSWVRQAPGKGLEWVANIKQEGSEKYYVDSVKGRFTISRDNAKNSLYLQMNSLRAEDTAVYYCARDRAVAGAFDIWGQGTMVTVSSASTKGPSVFPLAPSSKSTSGGTAALGCLVKDYFPEPVTVSWNSGALTSGVHTFPAVLQSSGLYSLSSVVTVPSSSLGTQTYICNVNHKPSNTKVDKKVEPKSC
# chain 3: not shown
# B7: PR001834 (antibody, V domains shown)
# VH: EVQLLESGGGLVQPGGSLRLSCAASGFTFSGYAMTWVRQPPEKGLEWVSSISGSGNNTFYADSVKGRFTISRDNSKNTLYLQMNSLRAEDTAVYYCAKEGTTETDDYHYNMDVWGQGTTVTVSS
# B8: PR001836 (antibody, V domains shown)
# VH: EVQLLESGGGLVQPGGSLRLSCAASGFIFSNFAMTWVRQPPEKGLKWVSSINGSGFNTYYTDSVKGRFTISRDNSRNTLYLQMNRLTAEDTAVYFCAKEGSSETDDHYYNVDVWGQGTTVTVSS
# B9: PR001830 (antibody, V domains shown)
# VH: EVQLLESGGGLVQPGGSLRLSCTASGFTFSNYAMSWVRQAPEKGLEWVSSISGSGGSTFYADSVKGRFTISRDNSKNTLYLQMNSLRAEDTAVYFCAKEGSSETDDHYYNVDVWGQGTTVTVSS
# B10: PR001833 (antibody, V domains shown)
# VH: B9 VH with T23A, N31S, S101A, S102T, H107Y, Y108H, Y109F, V111T
# B11: PR001767 (antibody, V domains shown)
# VH: EVQLVETGGGLIQPGGSLRLSCAASGFTVSSNYMSWVRQAPGKGLEWVSVIYSDGSTYYADSVKGRFTISRDNSKNTLYLQMNSLRAEDTAVYYCARDRYYGSGNYPTAYYGMDVRGQGTTVTVSS
# B12: PR001831 (antibody, V domains shown)
# VH: EVQLVESGGGVIQPGGSLRLSCEASGFTFSSYAMSWVRQAPEKGLEWVSSISGSGDSTYYADSVKGRFTISRDNSKNTLYLQMNSLRAEDTAGYHCAKEGSNGTDDYHYDIDVWGQGTSVTVSS
# Target: T2, human 4-1BB on CHO-K1 cells (human, UniProt Q07011 24-255)
# Assay: FACS
row,Binder,EC50 [nM]
1,B1,6.95
2,B2,22.4
3,B3,3.4
4,B4,4.62

# Target: T2, human 4-1BB on CHO-K1 cells
# Assay: FACS
# Remark: another data set of the same source
row,Binder,EC50 [nM]
1,B5,3.15
2,B6,10.2

# Target: T3, human PD-L1 on CHO-K1 cells (human, UniProt Q9NZQ7 19-290)
# Assay: FACS
# T3 sequence (Q9NZQ7 19-290): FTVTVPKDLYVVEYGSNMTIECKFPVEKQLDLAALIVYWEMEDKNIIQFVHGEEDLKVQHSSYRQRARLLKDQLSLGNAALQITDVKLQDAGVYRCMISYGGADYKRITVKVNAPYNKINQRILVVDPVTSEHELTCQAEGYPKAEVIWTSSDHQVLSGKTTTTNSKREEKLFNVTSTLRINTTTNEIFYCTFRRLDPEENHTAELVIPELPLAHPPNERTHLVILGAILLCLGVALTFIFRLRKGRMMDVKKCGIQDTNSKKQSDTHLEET
row,Binder,EC50 [nM]
1,B5,1.29
2,B6,1.72

# Target: T2, human 4-1BB on CHO-K1 cells
# Assay: FACS
# Remark: another data set of the same source
# Target sequence in this assay (Q07011 24-255): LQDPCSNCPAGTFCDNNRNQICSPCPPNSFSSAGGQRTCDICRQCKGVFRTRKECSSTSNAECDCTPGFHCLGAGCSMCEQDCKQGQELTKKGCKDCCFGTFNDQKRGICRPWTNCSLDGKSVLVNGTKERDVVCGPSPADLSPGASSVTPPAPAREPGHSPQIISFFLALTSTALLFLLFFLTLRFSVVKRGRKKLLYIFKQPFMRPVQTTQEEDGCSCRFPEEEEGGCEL
row,Binder,EC50 [nM]
1,B7,0.449
2,B8,0.28
3,B9,0.209
4,B10,0.21

# Target: T2, human 4-1BB on CHO-K1 cells
# Assay: FACS
# Remark: another data set of the same source
row,Binder,EC50 [nM]
1,B11,5.87

# Target: T1, cynomolgus monkey 4-1BB on CHO-K1 cells
# Assay: FACS; FIG. 12B
row,Binder,EC50 [nM]
1,B11,25

# Target: T1, cynomolgus monkey 4-1BB on CHO-K1 cells
# Assay: FACS; FIG. 12E
row,Binder,EC50 [nM]
1,B7,3.46
2,B8,2.41
3,B12,2.58
4,B9,0.899
5,B10,1.02

# Target: T2, human 4-1BB on CHO-K1 cells
# Assay: FACS blocking of 4-1BBL
# Target sequence in this assay (Q07011 24-255): as above
row,Binder,IC50 [nM]
1,B7,2.93
2,B8,2.12
3,B12,4.05
4,B9,2.32
5,B10,2.31

# Target: T3, human PD-L1 on CHO-K1 cells
# Assay: FACS; MDA-MB-231 cells
row,Binder,EC50 [nM]
1,B1,0.327
2,B2,0.286
3,B3,0.315
4,B4,0.331
